In US20120244226A1, “TREATMENT COMPOSITION AND METHOD” (DEC INTERNATIONAL NZ LIMITED, priority 2009, published 2012):

B1: pure lactoferrin (90%): composition 1 of WO 2008/009798: pure lactoferrin (90%) (protein, UniProt P24627 20-708, looked up)
Lactotransferrin: APRKNVRWCTISQPEWFKCRRWQWRMKKLGAPSITCVRRAFALECIRAIAEKKADAVTLDGGMVFEAGRDPYKLRPVAAEIYGTKESPQTHYYAVAVVKKGSNFQLDQLQGRKSCHTGLGRSAGWIIPMGILRPYLSWTESLEPLQGAVAKFFSASCVPCIDRQAYPNLCQLCKGEGENQCACSSREPYFGYSGAFKCLQDGAGDVAFVKETTVFENLPEKADRDQYELLCLNNSRAPVDAFKECHLAQVPSHAVVARSVDGKEDLIWKLLSKAQEKFGKNKSRSFQLFGSPPGQRDLLFKDSALGFLRIPSKVDSALYLGSRYLTTLKNLRETAEEVKARYTRVVWCAVGPEEQKKCQQWSQQSGQNVTCATASTTDDCIVLVLKGEADALNLDGGYIYTAGKCGLVPVLAENRKSSKHSSLDCVLRPTEGYLAVAVVKKANEGLTWNSLKDKKSCHTAVDRTAGWNIPMGLIVNQTGSCAFDEFFSQSCAPGADPKSRLCALCAGDDQGLDKCVPNSKEKYYGYTGAFRCLAEDVGDVAFVKNDTVWENTNGESTADWAKNLNREDFRLLCLDGTRKPVTEAQSCHLAVAPNHAVVSRSDRAAHVKQVLLHQQALFGKNGKNCPDKFCLFKSETKNLLFNDNTECLAKLGGRPTYEEYLGTEYVTAIANLKKCSTSPLLEACAFLTR
modifications: 90% pure preparation
B2: Lactoferrin: milk immune defence protein (P24627), tested on its own (protein, UniProt P24627 20-708, looked up)
Lactotransferrin: APRKNVRWCTISQPEWFKCRRWQWRMKKLGAPSITCVRRAFALECIRAIAEKKADAVTLDGGMVFEAGRDPYKLRPVAAEIYGTKESPQTHYYAVAVVKKGSNFQLDQLQGRKSCHTGLGRSAGWIIPMGILRPYLSWTESLEPLQGAVAKFFSASCVPCIDRQAYPNLCQLCKGEGENQCACSSREPYFGYSGAFKCLQDGAGDVAFVKETTVFENLPEKADRDQYELLCLNNSRAPVDAFKECHLAQVPSHAVVARSVDGKEDLIWKLLSKAQEKFGKNKSRSFQLFGSPPGQRDLLFKDSALGFLRIPSKVDSALYLGSRYLTTLKNLRETAEEVKARYTRVVWCAVGPEEQKKCQQWSQQSGQNVTCATASTTDDCIVLVLKGEADALNLDGGYIYTAGKCGLVPVLAENRKSSKHSSLDCVLRPTEGYLAVAVVKKANEGLTWNSLKDKKSCHTAVDRTAGWNIPMGLIVNQTGSCAFDEFFSQSCAPGADPKSRLCALCAGDDQGLDKCVPNSKEKYYGYTGAFRCLAEDVGDVAFVKNDTVWENTNGESTADWAKNLNREDFRLLCLDGTRKPVTEAQSCHLAVAPNHAVVSRSDRAAHVKQVLLHQQALFGKNGKNCPDKFCLFKSETKNLLFNDNTECLAKLGGRPTYEEYLGTEYVTAIANLKKCSTSPLLEACAFLTR

What was measured:
[1] = WO 2008/009798, cited from earlier work
[2] = test system: interleukin-6 (IL-6) produced by LPS activated neutrophils; test: IL-6 production by LPS activated neutrophils (ELISA); format: cell-based, rat; settings: for IL-6 % Inhibition: relative to LPS only control
Description: (§1) The anti-inflammatory properties of the cationic fraction, IDP, and the combination of IDP with chondroitin and glucosamine were determined by measuring their ability to inhibit the production of the inflammatory compounds, tumor necrosis factor-α (TNF-α) and interleukin-6 (IL-6) produced by LPS activated neutrophils. […] Neutrophils were isolated from rat blood and incubated in the presence of LPS. LPS is derived from bacterial cell walls and is used to mimic a 'bacterial infection'. […] Two of these cytokine are TNF-α and IL-6. The concentrations of both cytokines produced by neutrophils exposed to LPS and the various test substances are summarised graphically in FIGS. 1 and 2 respectively. […] Aliquots from each set of triplicates were combined, and duplicates assayed for cytokine concentrations. The plate blank was subtracted from each individual data point. A VersaMax 96-well plate reader was used to colorimetrically assess the production of TNF-α and IL-6 as determined by the ELISA, using Rat TNF-α ELISA kit, R&D Systems, Cat # RTA00, and Rat IL-6 ELISA kit, R&D Systems, Cat # […]. The average cytokine concentration, standard deviation and standard error were calculated for each data set (sample and concentration). Preliminary statistical significance was assessed using independent Student t-tests at α≦0.05.

[3] = test system: tumor necrosis factor-α (TNF-α) produced by LPS activated neutrophils; test: TNF-α production by LPS activated neutrophils (ELISA); format: cell-based, rat; settings: for TNF-α % Inhibition: relative to LPS only control
Description: as §1

Row | Molecule | anti-inflammatory activity of the composition on its own [1] | anti-inflammatory activity compared with glucosamine and chondroitin sulphate alone ([1]; combined with glucosamine and chondroitin sulphate) | IL-6 ([2]; 1 μg/ml) [pg/mL] | IL-6 % Inhibition ([2]; 1 μg/ml) [%] | IL-6 ([2]; 10 μg/ml) [pg/mL] | IL-6 % Inhibition ([2]; 10 μg/ml) [%] | IL-6 ([2]; 100 μg/ml) [pg/mL] | IL-6 % Inhibition ([2]; 100 μg/ml) [%] | stimulation of IL-6 levels ([2]; highest concentration tested) [%] | effect on IL-6, in words ([2]; lowest concentrations tested) | effect on IL-6, in words ([2]; over the concentrations tested) | TNF-α ([3]; 1 μg/ml) [pg/mL] | TNF-α % Inhibition ([3]; 1 μg/ml) [%] | TNF-α ([3]; 10 μg/ml) [pg/mL] | TNF-α % Inhibition ([3]; 10 μg/ml) [%] | TNF-α ([3]; 100 μg/ml) [pg/mL] | TNF-α % Inhibition ([3]; 100 μg/ml) [%] | stimulation of TNF-α levels ([3]; highest concentration tested) [%] | effect on TNF-α, in words ([3]; lowest concentrations tested) | effect on TNF-α, in words ([3]; over the concentrations tested)
1 | B1 | Neither of these compositions showed significant anti-inflammatory activity | significantly better |  |  |  |  |  |  |  |  |  |  |  |  |  |  |  |  |  | 
2 | B2 |  |  | 197.88 | 33.3 | 269.86 | 9.1 | 441.09 | −48.6 | 48 | no statistically significant effect | appeared not to act as anti-inflammatory | 226.19 | 17.9 | 242.58 | 11.9 | 325.95 | −18.4 | 18 | no statistically significant effect | appeared not to act as anti-inflammatory
